Here are results for 1 molecule from paper PMC10097598, “Cryo-EM structure of the transposon-associated TnpB enzyme”.

For the data set, the target named is T1, TnpB (ISDra2) (Deinococcus radiodurans (ISDra2), UniProt Q7DF80 1-408).
T1 sequence: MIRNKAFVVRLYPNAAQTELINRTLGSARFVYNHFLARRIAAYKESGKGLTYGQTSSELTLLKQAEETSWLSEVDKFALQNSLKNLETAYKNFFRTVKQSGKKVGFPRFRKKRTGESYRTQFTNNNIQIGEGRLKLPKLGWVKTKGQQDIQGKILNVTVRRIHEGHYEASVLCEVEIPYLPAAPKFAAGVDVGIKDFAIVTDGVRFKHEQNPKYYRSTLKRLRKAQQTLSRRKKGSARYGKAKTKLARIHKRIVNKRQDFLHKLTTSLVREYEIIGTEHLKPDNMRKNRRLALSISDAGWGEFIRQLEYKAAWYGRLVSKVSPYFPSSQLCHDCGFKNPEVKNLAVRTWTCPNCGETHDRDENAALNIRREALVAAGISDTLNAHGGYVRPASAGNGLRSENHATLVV
In words: co-purification (urea-PAGE, northern blot); bound RNA is 5'-processed, 100-160 nt; Ternary complex: TnpB–ωRNA + target DNA, room temperature 30 min; SEC in 20 mM Tris-HCl pH 8.0, 150 mM NaCl, 2 mM MgCl2, 10 uM ZnCl2, 1 mM DTT. Copurification:
Particulars: protein: recombinant; tags: N-terminal MBP, removed with HRV3C; pseudoknot, stems 1-3, triple helix.

B1: ωRNA full length (as co-expressed) (structured_RNA)
RNA: GAUUCAAGAAUCCCGAAGUGAAGAAUCUUGCCGUCCGUACAUGGACUUGCCCGAACUGUGGGGAAACCCAUGACCGAGACGAGAACGCUGCGCUGAACAUUCGGCGUGAAGCGUUGGUGGCUGCGGGAAUCUCAGACACCUUAAACGCUCAUGGAGGCUAUGUCAGACCUGCUUCGGCGGGCAAUGGUCUGCGAAGUGAGAAUCACGCGACUUUAGUCGUGUGAGGUUCAAGAGUCCCUUGGCGCCC
For the molecule B1, the binding result was “binds”.
